Results: article PMC10438457 (Science Advances, 2023)

B1: GST-CDK5RAP3 (natural protein)
chain: MEDHQHVPIDIQTSKLLDWLVDRRHCSLKWQSLVLTIREKINAAIQDMPESEEIAQLLSGSYIHYFHCLRILDLLKGTEASTKNIFGRYSSQRMKDWQEIIALYEKDNTYLVELSSLLVRNVNYEIPSLKKQIAKCQQLQQEYSRKEEECQAGAAEMREQFYHSCKQYGITGENVRGELLALVKDLPSQLAEIGAAAQQSLGEAIDVYQASVGFVCESPTEQVLPMLRFVQKRGNSTVYEWRTGTEPSVVERPHLEELPEQVAEDAIDWGDFGVEAVSEGTDSGISAEAAGIDWGIFPESDSKDPGGDGIDWGDDAVALQITVLEAGTQAPEGVARGPDALTLLEYTETRNQFLDELMELEIFLAQRAVELSEEADVLSVSQFQLAPAILQGQTKEKMVTMVSVLEDLIGKLTSLQLQHLFMILASPRYVDRVTEFLQQKLKQSQLLALKKELMVQKQQEALEEQAALEPKLDLLLEKTKELQKLIEADISKRYSGRPVNLMGTSL
B2: UFC1 (recombinant, GST tag cleaved) (enzyme)
chain: MADEATRRVVSEIPVLKTNAGPRDRELWVQRLKEEYQSLIRYVENNKNADNDWFRLESNKEGTRWFGKCWYIHDLLKYEFDIEFDIPITYPTTAPEIAVPELDGKTAKMYRGGKICLTDHFKPLWARNVPKFGLAHLMALGLGPWLAVEIPDLIQKGVIQHKEKCNQ

Tests used:
[1] = target: T1, MBP-UFL1 (UniProt O94874 1-794); test: pull-down
T1 sequence: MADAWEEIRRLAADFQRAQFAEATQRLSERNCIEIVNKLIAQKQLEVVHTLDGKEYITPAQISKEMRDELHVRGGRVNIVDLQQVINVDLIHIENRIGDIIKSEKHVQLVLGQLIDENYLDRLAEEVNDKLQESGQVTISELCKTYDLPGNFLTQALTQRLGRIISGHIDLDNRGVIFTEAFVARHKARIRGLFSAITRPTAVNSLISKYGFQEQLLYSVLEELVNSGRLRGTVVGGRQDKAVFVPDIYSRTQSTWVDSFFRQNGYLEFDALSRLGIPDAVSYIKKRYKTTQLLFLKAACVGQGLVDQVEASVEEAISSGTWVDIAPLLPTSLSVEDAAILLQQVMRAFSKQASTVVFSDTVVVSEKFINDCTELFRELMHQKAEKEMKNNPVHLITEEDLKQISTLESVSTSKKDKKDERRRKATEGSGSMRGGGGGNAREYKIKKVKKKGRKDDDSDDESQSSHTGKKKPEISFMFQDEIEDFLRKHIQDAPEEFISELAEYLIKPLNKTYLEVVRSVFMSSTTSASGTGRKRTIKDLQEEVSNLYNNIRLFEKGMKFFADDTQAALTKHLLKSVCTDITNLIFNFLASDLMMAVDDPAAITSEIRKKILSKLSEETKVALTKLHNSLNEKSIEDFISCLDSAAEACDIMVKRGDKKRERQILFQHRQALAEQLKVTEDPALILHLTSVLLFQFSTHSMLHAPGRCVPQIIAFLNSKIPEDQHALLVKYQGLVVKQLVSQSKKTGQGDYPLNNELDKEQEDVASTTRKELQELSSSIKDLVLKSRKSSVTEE

[2] = target: B2; test: ITC
[3] = target: B1; test: pull-down

Question: Does B1 bind [1]?
Answer: binds

Question: For MADAWEEIRRLAADFQRAQFA [UFL1 (1-21), UFC1-binding sequence peptide], which Kd [2] is on record?
Answer: 410 nM

Question: Does B2 bind [3]?
Answer: binds
